{"source": "paper PMC10244175", "about": "“Seeding the aggregation of TDP-43 requires post-fibrillization proteolytic cleavage” (Nature Neuroscience, 2023)", "proteins": {"B1": {"name": "TDP-43 (279–360) core peptide (domain or fragment, UniProt Q13148 279-360, looked up)", "chain": "NPGGFGNQGGFGNSRGGGAGLGNNQGSNMGGGMNFGAFSINPAMMAAAQAALQSSWGMMGMLASQQNQSGPSGNNQNQGNMQ", "notes": "TDP-43 residues 279-360 (82 amino acids), part of the C-terminal domain; printed theoretical mass 8041.7 Da; the atomic model PDB 7Q3U covers G281-G351; The fusion is written as His6-Sumo-TDP-43 (279–360) CP; the tag is removed by Ulp-1; also called CP; CP (279–360); source: E. coli ER2566, purified (Ni-NTA, Ulp-1 cleavage, reverse-phase HPLC C18), lyophilized; fibrils formed at 50 µM in …"}}, "molecular_target": "the molecule itself", "experiment": "cryo-EM structure; fibrils of recombinant CP (279–360); helical reconstruction in RELION; two populations (one protofilament 4.1 Å, two protofilaments 3.7 Å); model built for G281-G351", "data": [{"protein": "B1", "values": [{"measurement": "binding result", "result": "binds"}]}]}
